Experimental data as given in the supplement of paper PMC9170038.

Tested on: MS2 coat protein
Experiment: apparent KD of MS2 coat protein; higher = weaker reporter binding
Settings: Eterna round: R107
Outline: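 Designed RNA switches, transcribed on-chip from Illumina sequencing clusters, were titrated with SNAP-549-labelled MS2 coat protein from 0.7 or 1.5 nM to 3 µM in twofold steps. The solution was 100 mM Tris-HCl pH 7.5, 80 mM KCl, 4 mM MgCl2, with constant ligand or without it. Apparent KD is the median over each design's normalised cluster binding-curve fits.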

[1] = input ligand: theophylline 20 uM
[2] = input ligand: theophylline 2 mM
[3] = input ligand: tryptophan 2.4 mM

Sequence	apparent KD of MS2 coat protein (input ligand: arginine 13.2 mM) [nM]	apparent KD of MS2 coat protein (input ligand: none) [nM]	apparent KD of MS2 coat protein [1] [nM]	apparent KD of MS2 coat protein [2] [nM]	apparent KD of MS2 coat protein [3] [nM]
UGGCGAGAAGGAAGGAGCGUCAGCUGAGUUACAUGAGGAUCACCCAUGUUGCACAUAGUGUGACAGGUAGGUCGCCUUCUGCCCU [SS-ArgB19]	38	44.1	63.7	37.5	37.6
UGGUACAUGAGGAUCACCCAUGUUCCAGAUACCAGAUACCCGGUUAUCCCUUGGCAGCUGGUGGUACAUGAGGAUCACCCAUGUG [Exclusion Theophylline A GF15]	32.9	–	58.9	–	44
UGGUACAUGAGGAUCACCCAUGUUCCAGAUACCAGUGUCCCGCUGCACCCUUGGCAGCUGGUGGCACAUGAGGAUCACCCAUGUG [Exclusion Theophylline A GF12]	11.5	–	16.3	–	15.1
UGUAAAAUAACAGAUACCAGCGUGUUAUAAAACAUGAGGAUCACCCAUGUAGUGAUCAAGCGCCCUUGGCAGCUGGUAUUUUAUG [7.D]	105	–	171	–	140
UGUAUGGACUGAAGGAGCGGGAAAAUAAGAUGAGGAUCACCCAUCUAAAAGGCGAAAGCCACCCAGGUAGGUCGCAGUCCAUACU	27.7	8.99	34.8	8.34	7.03
UGUAUGGACUGAAGGAGCGGGUAAUAAACUUGAGGAUCACCCAGGUAAUAGGCGAAAGCCACCCAGGUAGGUCGCAGUCCAUACU	32.7	28.5	38.9	23	25.6
UGUAUGGACUGAAGGAGCGGGUUGAUACCAUGAGGAUCACCCAUGGAAAAGGCGAAAGCCGCCCAGGUAGGUCGCAGUCCAUACU	14	12.9	19.7	18.4	16.6
UGUAUGGGAACAUGAGGAUCACCCAUGUGGCGAGGACCGGUACGGCCGCCACUCGAGCAGCAAGCGUGUAUGACGCUGCUGCAUG [ss-trypA-0mod]	225	312	377	324	136
UGUAUGUGAUCUGAUACCAGACGUGUAAACCUGAGGAUCACCCUGGUAAGGCGAAAGCCAGUCCCUUGGCAGCAGAUCGCAUACU	47.7	49	40	21.5	50
UGUAUGUGAUCUGAUACCAGAGUUGAUAAUCUGAGGAUCACCCUGGUAAGGCGAAAGCCGCUCCCUUGGCAGCAGAUCGCAUACU	526	946	969	244	884
UGUAUGUGAUCUGAUACCAGUCCAACUGGUAAAGCAUGAGGAUCACCCAUGCAAAAUUGGGACCCUUGGCAGCAGAUCGCAUACU	167	264	213	28.1	267
UGUCAAUCGCCGGAUACCAGCCUAACUGAAGGAAAUCUAAACAUGAGGAUCACCCAUGUAGGCCCUUGGCAGCCGAGUAAGUACA [theeternabot_exclusion_MS2_Theo_B_15]	33.9	–	65.4	–	35.7
UGUCGCAGGUUAGAUACCAGCGAGGCGCGGGUAAAUGUUCACAUGAGGAUCACCCAUGUUCGCCCUUGGCAGCUAGUAGGCAUAA [theeternabot_exclusion_MS2_Theo_B_36]	23.9	–	34	–	27.3
UGUCGUAGACAUGAGGAUCACCCAUGUCCACGAGGACCGGUACGGCCGCCACUCGGGAUAUAAACCGUUACGGGUGGGUGGUGUU [Maarlainin]	16	–	26	21.2	–
UGUCUAGUAAUCGAUACCAGCUACAUGAGGAUCACCCAUGUAGUUCGAACGGCCGCAUGUAGCCCUUGGCAGCGAAUAGUUACAU [Onbitelege]	14.2	–	32.8	–	18.7
UGUGCAUGAGUUGGAAAAGCUCAUGGGCAUCGAGGACCGGUACGGCCGCCACUCGGCUGUACAUGAGGAUCACCCAUGUCAGGGU [#1 Same State - Tryptophan A Attempt #23 (HarryS)]	82	288	141	170	891
UUAAUCAUAUUAGAAAACUAAUAUGCAGAAGGAGCGUGAUAAAACACAGGUAGGUCGCUGAAGGGAACAUGAGGAUCACCCAUGU [AstrosSSArgA#8]	26.5	25.7	32.7	33	26
UUAAUCUAUAAUGAAAACAUUAUAGCAGAAGGAGCGUGAUAAAACACAGGUAGGUCGCUGAAGGGAACAUGAGGAUCACCCAUGU [AstrosSSArgA#12]	24.3	28.7	40.5	39.4	23.6
UUAAUCUUGGAUGAAAACAUUUAAGCAGAAGGAGCGUGAUAAAACACAGGUAGGUCGCUGAAGGGAACAUGAGGAUCACCCAUGU [AstrosSSArgA#15]	22.5	38	28.8	31.7	32.9
UUAAUCUUUAUUGAAAACAAUAAAGCAGAAGGAGCGUGAUAAAACACAGGUAGGUCGCUGAAGGGAACAUGAGGAUCACCCAUGU [AstrosSSArgA#13]	36.4	26.6	32	35.1	24.1

Sequence	apparent KD of MS2 coat protein (input ligand: arginine 13.2 mM) [nM]	apparent KD of MS2 coat protein (input ligand: none) [nM]	apparent KD of MS2 coat protein [1] [nM]	apparent KD of MS2 coat protein [2] [nM]	apparent KD of MS2 coat protein [3] [nM]
UUAAUGAUAUAUCAUAUGAUAUAUCCAGAAGGAGCGUCAUAAAUGGCAGGUAGGUCGCUGAAGGCAACAUGAGGAUCACCCAUGU [#16 Same State - Arginine A]	20.1	28.6	44.6	32.6	24.4
UUAGUAACGACGGCCGCCACUGAUUUUGGACAUGAGGAUCACCCAUGUAAAGAUCCUAGAAUGGUCAGGACCGGGUCUGAUAAUG [Exclusion Tryptophane B GF4]	35	35.3	40	54	64.4
UUAUAUAUACAUGAGGAUCACCCAUGUGAUACCAGCCUGGAAACAGGCCCUUGGCAGCACAAAUACUCCAGAAAAUAUAAUAAAU [MAT - Exclusion Theophlline A - Mod of Eli - D4]	26.1	–	56.8	–	27.8
UUAUUUAUAAAUGAUACCAGCCGAUUGGCCGCAAAUCCUAACAUGAGGAUCACCCAUGUCGGCCCUUGGCAGCAUUUAUGGGUUU [XTheo B #28]	56	–	134	–	65.1
UUAUUUAUAAUGGAUACCAGUUUAAUGGCCGCAAAUCCUGACAUGAGGAUCACCCAUGUAAGCCCUUGGCAGCUGUUAUGGGUUU [XTheo B #24]	34.2	–	47.3	–	35.2
UUAUUUAUAGGGUAUAUCAGAUUAACUGAAGGAGCGUGGUAAUUCACAGGUAGGUCGCAGAUGGAACAUGAGGAUCACCCAUGUU [JR_ExcArginiA_Sub015]	18.2	19.2	28.5	22.2	20.8
UUCGUUUGCGGAAGGAGCGACGGACAUCGGUGAACGACGGACAUGAGGAUCACCCAUGUACGUCAGGUAGGUCGCCGCUAAGAGU [Enbiceri]	13.7	13.2	13.8	15.2	13.8
UUCUGGUCCCGUGAUACCAGAGACAUGAGGAUCACCCAUGUACAUGAGGAUCACCCAUGUUUCCCUUGGCAGCACUGCAGUGAGC [Exclusion Theophylline B GF 15]	56	261	160	332	147
UUCUUUAAGUCGGCCGCCACUGAAACAUGAGGAUCACCCAUGUAAAUUUGGGAGUAGGUAUAUUACAGGACCGGGACUAUAGUAA [JR_ExcTryptoB_Sub021]	29.2	–	31.2	27.3	–
UUCUUUGACGAUCUGGGUUUACCAGAUCGACGAGGACCGGUACGGCCGCCACUCGUGUUUUCUUUACAUGAGGAUCACCCAUGUU [#16Tryptophan A Same State]	16.2	–	22.6	19.1	–
UUGACAUGAGGAUCACCCAUGUAAACUGAAGGAGCGUCGAAAAUGACAGGUAGGUCGCAGAAUAAUAAUGGUGAUCGUAAAUAUU [#12 Exclusion - Arginine A]	42.6	79	79.9	83.9	63
UUGGAUGAAGGAGUGAAAAGCAACUCAGAUACCAGUCUGAGUAAUGACCCUUGGCAGCUGAGAACAUGAGGAUCACCCAUGUGAC [theeternabot_exclusion_MS2_Theo_A_34]	11.7	–	15.5	–	17.1
UUGGGUUUGUGAAGGAGCGGGAAUGUUUUAUAGUGGAUCCUAACAUGAGGAUCACCCAUGUCCCAGGUAGGUCGCGCGGGUUUGG [12.S]	40.1	64.8	100	79.9	55.5
UUGUGUUUAUUGGUUUAGCUAUUAUGGUUGCGAGGACCGGUACGGCCGCCACUCGAUGGAACAUGAGGAUCACCCAUGUGAGGAA [JR_ExcTryptoA_Sub013]	14.7	28	31.8	33.9	22.1
UUGUUGUUUGGAAGGAGCGUGGAUGAGUUAGAACAUGAGGAUCACCCAUGUUGGAUGAUACCACAGGUAGGUCGCCGGGUGGUGG [11.Z]	229	16.6	48.8	24.5	21.4
UUUAAUUUAAUAGAUACCAGCUAAUAAUAAUCCCGGAGGACAUGAGGAUCACCCAUGUGGAGCCCUUGGCAGCUAAAAUAAAUUU [Exclusion - Theophylline B]	20.1	32.9	63.7	22.4	28.9
UUUGAUAUGACAGAUACCAGCGUGUUGUUGAACAUGAGGAUCACCCAUGUAGUGAUCAAGCGCCCUUGGCAGCUGGUGUGUUAGG [7.P]	55.5	–	323	–	158
UUUUAAAGCAUGGCGUAUCGGAAAACCGAUACCAGUACAGAAAUGUACCCUUGGCAGCGGAAUUUUACAUGAGGAUCACCCAUGU [Ex Theophylline A 1]	14.9	–	19.7	–	12.7
UUUUUUUUGGGAAGGAGCGGGAACAUGUGGAUCUCCCAUGUACAUGAGGAUCACCCAUGUACCCAGGUAGGUCGCCCAUUUUUUU [Exclusion - Arginine B]	69.5	102	94.7	112	66.2
UUUUUUUUGGGAAGGAGCGGGAACAUGUGGAUCUCCCAUGUACAUGAGGAUCACCCAUGUACCCAGGUAGGUCGCUCAUUUUUUU [Exclusion - Arginine B]	28.4	25.8	38.6	37.8	26
